Experimental findings from article PMC6127865 are described below.

This data set deals with T1, HisMBP-CDX2ΔCTD R214N (UniProt Q99626 1-245, R214N).
T1 sequence: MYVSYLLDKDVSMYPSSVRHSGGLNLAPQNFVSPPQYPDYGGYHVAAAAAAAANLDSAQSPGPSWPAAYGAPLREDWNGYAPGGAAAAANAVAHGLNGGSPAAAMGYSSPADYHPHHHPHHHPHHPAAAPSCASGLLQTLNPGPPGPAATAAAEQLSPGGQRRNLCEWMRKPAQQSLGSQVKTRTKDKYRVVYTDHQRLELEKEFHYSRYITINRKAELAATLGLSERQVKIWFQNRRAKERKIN
As to the kind of experiment: EMSA.

B1: TP5921/TP5922 CDX2 consensus site duplex (dsDNA)
DNA 1: TAATCTCTCTGTTTATAGCTCTGACCT
DNA 2: AGGTCAGAGCTATAAACAGAGAGATTA
Regarding B1, the binding result is “no binding”.
